Measurements reported in the supplement of paper PMC10065799, “High-throughput profiling of sequence recognition by tyrosine kinases and SH2 domains using bacterial peptide display” (eLife, 2023).

How the values were obtained:
[1] = molecular target: FGFR3 (UniProt P22607); experiment: phosphorylation enrichment, bacterial display (enrichment ratio); higher = better substrate or ligand; peptides without Tyr show the background
[2] = molecular target: FGFR1 (UniProt P11362); experiment: as above
FGFR1, sequence (P11362 whole entry, looked up): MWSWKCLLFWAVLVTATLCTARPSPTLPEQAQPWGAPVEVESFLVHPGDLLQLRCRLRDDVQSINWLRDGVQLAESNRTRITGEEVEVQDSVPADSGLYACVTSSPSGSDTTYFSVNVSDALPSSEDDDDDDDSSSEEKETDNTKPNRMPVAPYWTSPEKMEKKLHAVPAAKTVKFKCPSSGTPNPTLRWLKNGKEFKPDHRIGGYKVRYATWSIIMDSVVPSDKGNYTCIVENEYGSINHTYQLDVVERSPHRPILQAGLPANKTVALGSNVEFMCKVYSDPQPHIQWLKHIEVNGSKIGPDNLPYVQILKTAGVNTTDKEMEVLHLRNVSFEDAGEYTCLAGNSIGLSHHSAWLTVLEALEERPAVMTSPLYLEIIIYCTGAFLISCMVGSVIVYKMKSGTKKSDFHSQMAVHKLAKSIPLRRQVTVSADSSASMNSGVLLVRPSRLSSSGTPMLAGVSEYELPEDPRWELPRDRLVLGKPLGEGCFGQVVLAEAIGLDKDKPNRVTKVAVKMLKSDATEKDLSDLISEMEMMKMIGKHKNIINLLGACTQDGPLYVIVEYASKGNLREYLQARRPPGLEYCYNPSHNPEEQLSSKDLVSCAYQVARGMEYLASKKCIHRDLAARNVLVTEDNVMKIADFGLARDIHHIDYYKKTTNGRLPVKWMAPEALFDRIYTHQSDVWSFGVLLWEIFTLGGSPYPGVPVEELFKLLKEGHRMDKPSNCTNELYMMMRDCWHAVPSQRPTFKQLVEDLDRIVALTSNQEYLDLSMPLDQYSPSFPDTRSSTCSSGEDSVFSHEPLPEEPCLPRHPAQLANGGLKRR

[3] = tested on: c-Src; experiment: as above
[4] = tested on: Fer (mouse); experiment: as above
[5] = tested on: AncSZ; experiment: as above
[6] = molecular target: Fyn (UniProt P06241); experiment: as above
[7] = molecular target: Jak2 (UniProt O60674); experiment: as above
[8] = molecular target: Hck (UniProt P08631); experiment: as above
Hck, sequence (P08631 whole entry, looked up): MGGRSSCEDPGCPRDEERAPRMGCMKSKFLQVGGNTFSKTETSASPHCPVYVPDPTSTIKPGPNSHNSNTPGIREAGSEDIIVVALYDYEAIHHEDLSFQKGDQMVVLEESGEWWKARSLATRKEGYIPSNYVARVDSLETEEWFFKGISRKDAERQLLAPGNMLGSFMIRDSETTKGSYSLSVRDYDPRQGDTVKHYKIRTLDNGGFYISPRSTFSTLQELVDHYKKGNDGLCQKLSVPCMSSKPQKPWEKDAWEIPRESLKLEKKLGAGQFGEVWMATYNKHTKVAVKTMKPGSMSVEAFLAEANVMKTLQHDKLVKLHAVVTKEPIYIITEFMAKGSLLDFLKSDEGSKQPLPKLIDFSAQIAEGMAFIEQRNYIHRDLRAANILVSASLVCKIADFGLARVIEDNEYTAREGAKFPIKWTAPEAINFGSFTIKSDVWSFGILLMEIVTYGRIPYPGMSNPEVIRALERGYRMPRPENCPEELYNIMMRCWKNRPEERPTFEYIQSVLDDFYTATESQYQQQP

[9] = molecular target: EPHB2 (UniProt P29323); experiment: as above
EPHB2, sequence (P29323 whole entry, looked up): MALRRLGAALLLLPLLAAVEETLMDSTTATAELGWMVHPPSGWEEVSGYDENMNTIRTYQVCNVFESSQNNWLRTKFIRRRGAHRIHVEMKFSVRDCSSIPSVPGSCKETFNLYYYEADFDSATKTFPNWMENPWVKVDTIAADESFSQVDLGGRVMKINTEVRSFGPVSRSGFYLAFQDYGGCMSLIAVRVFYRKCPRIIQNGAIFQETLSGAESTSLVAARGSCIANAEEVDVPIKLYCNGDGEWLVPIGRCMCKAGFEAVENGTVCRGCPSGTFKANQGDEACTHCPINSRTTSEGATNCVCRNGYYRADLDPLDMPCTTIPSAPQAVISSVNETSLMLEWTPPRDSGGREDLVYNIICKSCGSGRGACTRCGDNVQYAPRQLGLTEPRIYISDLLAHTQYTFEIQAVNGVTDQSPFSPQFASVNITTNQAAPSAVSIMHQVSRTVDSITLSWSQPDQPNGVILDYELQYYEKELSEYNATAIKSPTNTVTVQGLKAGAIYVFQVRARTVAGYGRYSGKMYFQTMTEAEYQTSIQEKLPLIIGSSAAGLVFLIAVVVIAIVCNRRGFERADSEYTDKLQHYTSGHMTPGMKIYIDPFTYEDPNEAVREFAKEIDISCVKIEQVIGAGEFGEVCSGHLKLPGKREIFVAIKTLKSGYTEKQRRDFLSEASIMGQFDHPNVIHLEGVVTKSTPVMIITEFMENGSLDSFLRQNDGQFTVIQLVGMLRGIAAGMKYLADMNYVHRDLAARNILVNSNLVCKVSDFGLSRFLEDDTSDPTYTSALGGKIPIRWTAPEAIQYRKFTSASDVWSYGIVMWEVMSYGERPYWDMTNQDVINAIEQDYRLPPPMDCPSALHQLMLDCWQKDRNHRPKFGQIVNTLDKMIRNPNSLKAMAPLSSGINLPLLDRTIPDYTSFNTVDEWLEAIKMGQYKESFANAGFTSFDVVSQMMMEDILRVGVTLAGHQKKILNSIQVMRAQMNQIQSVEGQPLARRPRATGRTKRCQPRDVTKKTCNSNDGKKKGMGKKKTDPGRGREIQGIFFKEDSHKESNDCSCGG

[10] = molecular target: MERTK (UniProt Q12866); experiment: as above
MERTK, sequence (Q12866 whole entry, looked up): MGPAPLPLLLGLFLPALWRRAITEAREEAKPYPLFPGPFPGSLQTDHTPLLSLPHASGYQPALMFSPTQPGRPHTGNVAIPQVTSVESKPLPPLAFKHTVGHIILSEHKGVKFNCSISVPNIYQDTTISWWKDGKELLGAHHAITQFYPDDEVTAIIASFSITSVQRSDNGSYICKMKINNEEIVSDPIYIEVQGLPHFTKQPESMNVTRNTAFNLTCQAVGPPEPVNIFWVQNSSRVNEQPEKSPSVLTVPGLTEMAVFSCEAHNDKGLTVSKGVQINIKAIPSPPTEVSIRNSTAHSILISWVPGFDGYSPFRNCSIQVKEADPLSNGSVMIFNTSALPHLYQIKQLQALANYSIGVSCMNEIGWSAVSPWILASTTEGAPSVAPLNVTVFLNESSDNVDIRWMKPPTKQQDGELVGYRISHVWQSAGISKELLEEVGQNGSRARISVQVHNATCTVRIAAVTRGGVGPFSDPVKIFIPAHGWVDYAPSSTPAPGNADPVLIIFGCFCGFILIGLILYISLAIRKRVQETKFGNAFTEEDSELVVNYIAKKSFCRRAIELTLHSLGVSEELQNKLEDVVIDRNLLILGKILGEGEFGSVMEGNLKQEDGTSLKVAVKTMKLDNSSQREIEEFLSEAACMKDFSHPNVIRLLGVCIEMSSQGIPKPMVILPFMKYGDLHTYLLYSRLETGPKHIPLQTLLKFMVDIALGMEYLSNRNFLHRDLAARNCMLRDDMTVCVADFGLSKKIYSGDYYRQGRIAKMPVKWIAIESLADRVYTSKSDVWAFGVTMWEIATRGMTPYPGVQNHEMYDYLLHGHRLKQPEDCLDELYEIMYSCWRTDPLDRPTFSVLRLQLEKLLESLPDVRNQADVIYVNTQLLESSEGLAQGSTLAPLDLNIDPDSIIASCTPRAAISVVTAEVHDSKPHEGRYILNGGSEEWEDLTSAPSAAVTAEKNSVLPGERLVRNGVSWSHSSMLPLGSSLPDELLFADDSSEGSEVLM

[11] = molecular target: Fes (UniProt P07332); experiment: as above
[12] = molecular target: EPHB1 (UniProt P54762); experiment: as above
EPHB1, sequence (P54762 whole entry, looked up): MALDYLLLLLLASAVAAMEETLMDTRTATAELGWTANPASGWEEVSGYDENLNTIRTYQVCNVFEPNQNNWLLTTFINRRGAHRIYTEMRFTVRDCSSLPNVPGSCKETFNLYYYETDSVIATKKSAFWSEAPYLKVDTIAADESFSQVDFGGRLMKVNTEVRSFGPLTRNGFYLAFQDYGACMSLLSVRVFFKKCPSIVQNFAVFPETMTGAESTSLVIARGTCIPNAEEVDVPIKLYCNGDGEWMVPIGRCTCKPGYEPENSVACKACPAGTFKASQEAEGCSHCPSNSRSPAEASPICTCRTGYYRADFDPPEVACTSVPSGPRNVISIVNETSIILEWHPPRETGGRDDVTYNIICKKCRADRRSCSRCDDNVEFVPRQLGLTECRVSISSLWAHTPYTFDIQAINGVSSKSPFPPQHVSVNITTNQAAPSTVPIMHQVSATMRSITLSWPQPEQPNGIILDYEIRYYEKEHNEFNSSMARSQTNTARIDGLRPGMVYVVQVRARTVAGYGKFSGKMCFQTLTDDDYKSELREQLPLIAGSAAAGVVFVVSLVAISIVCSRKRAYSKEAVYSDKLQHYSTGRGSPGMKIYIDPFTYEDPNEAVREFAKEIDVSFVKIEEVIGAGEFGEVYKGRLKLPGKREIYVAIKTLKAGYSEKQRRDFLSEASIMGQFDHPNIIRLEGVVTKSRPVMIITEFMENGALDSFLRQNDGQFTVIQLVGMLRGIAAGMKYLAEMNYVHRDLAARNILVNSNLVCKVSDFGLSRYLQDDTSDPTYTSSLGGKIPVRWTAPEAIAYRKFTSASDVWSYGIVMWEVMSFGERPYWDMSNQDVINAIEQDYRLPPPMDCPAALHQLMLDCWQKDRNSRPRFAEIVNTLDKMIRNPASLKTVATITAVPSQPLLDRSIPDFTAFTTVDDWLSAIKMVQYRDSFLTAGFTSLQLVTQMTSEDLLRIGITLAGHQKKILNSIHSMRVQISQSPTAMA

[13] = tested on: c-Abl (mouse); experiment: as above
[14] = molecular target: Grb2 SH2 (UniProt P62993); experiment: SH2 binding enrichment of the phosphorylated peptide, bacterial display (enrichment ratio); higher = better substrate or ligand; peptides without Tyr show the background
Grb2 SH2, sequence (P62993 whole entry, looked up): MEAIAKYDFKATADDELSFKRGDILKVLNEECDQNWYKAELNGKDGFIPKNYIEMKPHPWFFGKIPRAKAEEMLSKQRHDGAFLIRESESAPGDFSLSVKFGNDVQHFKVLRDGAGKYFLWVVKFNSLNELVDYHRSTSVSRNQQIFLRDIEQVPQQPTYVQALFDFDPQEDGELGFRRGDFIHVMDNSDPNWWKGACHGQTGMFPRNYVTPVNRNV

[15] = molecular target: SHP2-C SH2; experiment: as above
[16] = molecular target: c-Src SH2; experiment: as above
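Wherever SH2 binding enrichment of the phosphorylated peptide, bacterial display is given: peptide library displayed on the E. coli surface as eCPX fusions, selected cells deep-sequenced, score is each peptide's frequency after selection divided by its frequency in the input.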
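Wherever phosphorylation enrichment, bacterial display is given: 11-residue human phosphosite peptides and single-mutation variants displayed on the E. coli surface, counted by deep sequencing, each peptide's frequency after selection divided by its frequency in the unselected input library; frequency after pTyr selection over input frequency; kinase dosed for 20-30% of maximal phosphorylation in three min.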

Sequence | phosphorylation enrichment [1] | phosphorylation enrichment [2] | phosphorylation enrichment [3] | phosphorylation enrichment [4] | phosphorylation enrichment [5] | phosphorylation enrichment [6] | phosphorylation enrichment [7] | phosphorylation enrichment [8] | phosphorylation enrichment [9] | phosphorylation enrichment [10] | phosphorylation enrichment [11] | phosphorylation enrichment [12] | phosphorylation enrichment [13] | SH2 binding enrichment [14] | SH2 binding enrichment [15] | SH2 binding enrichment [16]
KLNNEHLELNY [MME_Y497_Y497H] | 0.517 | 0.437 | 0.417 | 0.445 | 0.775 | 0.471 | 0.619 | 0.421 | 0.452 | 0.395 | 0.768 | 0.402 | 0.58 | 0.934 | 0.734 | 0.573
KLQQWYREHRS [GPI_Y17] | 0.475 | 0.434 | 0.384 | 0.392 | 0.6 | 0.382 | 0.567 | 0.44 | 0.399 | 0.355 | 0.613 | 0.37 | 0.548 | 1.37 | 1.12 | 1.26
KLSHLYQDHMQ [WNT5A_Y86_C83S] | 0.703 | 0.439 | 0.406 | 0.647 | 0.794 | 0.442 | 0.712 | 0.455 | 0.579 | 0.437 | 0.844 | 0.462 | 0.616 | 0.832 | 0.772 | 0.573
KLVDVYVNDAF [PGK1_Y161_G158V] | 0.626 | 0.635 | 0.435 | 0.496 | 0.895 | 0.574 | 0.661 | 0.554 | 0.5 | 0.425 | 0.81 | 0.575 | 0.387 | 1.44 | 0.832 | 0.764
KMATAYIRSMS [BCO1_Y264_R267S] | 0.369 | 0.397 | 0.385 | 0.337 | 0.564 | 0.417 | 0.518 | 0.388 | 0.374 | 0.396 | 0.6 | 0.409 | 0.516 | 1.08 | 0.59 | 0.464
KMTGRYEMFAR [UPB1_Y362_YF] | 0.53 | 0.499 | 0.451 | 0.438 | 0.808 | 0.386 | 0.586 | 0.505 | 0.556 | 0.633 | 0.815 | 0.496 | 0.571 | 1.36 | 1.07 | 1.75
KPPPTYESEEE [BRD4_Y599] | 0.775 | 0.618 | 0.767 | 0.753 | 1.65 | 0.664 | 1.39 | 0.641 | 0.711 | 0.552 | 1.88 | 0.653 | 1.18 | 0.977 | 0.719 | 0.728
KPVDTYFDSTR [DYNC2H1_Y2230_M2227V_YF] | 0.73 | 0.624 | 0.43 | 0.472 | 0.925 | 0.567 | 0.723 | 0.565 | 0.556 | 0.54 | 0.997 | 0.668 | 0.611 | 0.83 | 0.693 | 0.422
KQELVYPNKKL [OPTN_Y356_T357P] | 0.417 | 0.356 | 0.349 | 0.323 | 0.576 | 0.324 | 0.443 | 0.293 | 0.358 | 0.374 | 0.743 | 0.33 | 0.561 | 0.811 | 0.505 | 0.471
KQFWRYFAGNL [SLC25A4_Y112] | 0.598 | 0.461 | 0.507 | 0.488 | 0.944 | 0.32 | 1.04 | 0.449 | 0.53 | 0.542 | 1.03 | 0.777 | 0.764 | 1.09 | 0.972 | 0.899
KREPQYSSHSS [SIPA1L3_Y1265_G1261R] | 0.376 | 0.377 | 0.506 | 0.401 | 0.559 | 0.338 | 0.43 | 0.362 | 0.306 | 0.452 | 0.629 | 0.423 | 0.486 | 0.973 | 0.885 | 0.549
KSFDMYSGDVM [FAM3D_Y122_A118S] | 0.667 | 0.654 | 1.1 | 0.589 | 0.998 | 1.06 | 0.698 | 1.13 | 1.22 | 0.914 | 0.856 | 1.6 | 0.609 | 0.803 | 0.674 | 0.613
KTTILYKLKLG [ARF1_Y35] | 0.688 | 0.404 | 0.336 | 0.426 | 1.01 | 0.358 | 0.909 | 0.401 | 0.411 | 0.376 | 1 | 0.41 | 0.719 | 1.33 | 0.973 | 0.865
KVASVYEAPGF [NT5C_Y65] | 0.583 | 0.481 | 5.05 | 6.87 | 0.973 | 7.05 | 0.609 | 9.28 | 5.62 | 2.59 | 0.903 | 3.77 | 9.41 | 0.948 | 0.906 | 0.645
KVGNGYISAAE [CALM2_Y100_D96V] | 0.588 | 0.456 | 0.391 | 0.476 | 0.619 | 0.337 | 0.485 | 0.393 | 0.468 | 0.42 | 0.65 | 0.4 | 0.538 | 0.892 | 0.546 | 0.53
KVPAIYGVGTR [CPS1_Y162_D165G] | 0.402 | 0.362 | 2.44 | 0.377 | 0.47 | 2.27 | 0.562 | 5.68 | 0.391 | 0.527 | 0.576 | 0.424 | 0.923 | 0.948 | 0.615 | 0.699
KVQVSYKGETK [HSPA1A_Y107] | 0.432 | 0.429 | 0.352 | 0.378 | 0.608 | 0.426 | 0.428 | 0.346 | 0.449 | 0.387 | 0.511 | 0.442 | 0.85 | 0.875 | 0.656 | 0.493
